In patent publication US20220025056A1:

Assays:
[1] = molecular target: human ILT2 (LILRB1) expressed at the surface of transfected cells (human) (UniProt Q8NHL6); assay: flow cytometry, CHO-ILT2 cells
[2] = molecular target: ILT-2_6xHis recombinant protein (human) (UniProt Q8NHL6); assay: Octet BLI, antibody on anti-mouse Fc sensor, soluble ILT2 analyte
Chain of ILT-2_6xHis recombinant protein (human) (Q8NHL6 other isoform, or with tags, fused parts or gaps limits assumed): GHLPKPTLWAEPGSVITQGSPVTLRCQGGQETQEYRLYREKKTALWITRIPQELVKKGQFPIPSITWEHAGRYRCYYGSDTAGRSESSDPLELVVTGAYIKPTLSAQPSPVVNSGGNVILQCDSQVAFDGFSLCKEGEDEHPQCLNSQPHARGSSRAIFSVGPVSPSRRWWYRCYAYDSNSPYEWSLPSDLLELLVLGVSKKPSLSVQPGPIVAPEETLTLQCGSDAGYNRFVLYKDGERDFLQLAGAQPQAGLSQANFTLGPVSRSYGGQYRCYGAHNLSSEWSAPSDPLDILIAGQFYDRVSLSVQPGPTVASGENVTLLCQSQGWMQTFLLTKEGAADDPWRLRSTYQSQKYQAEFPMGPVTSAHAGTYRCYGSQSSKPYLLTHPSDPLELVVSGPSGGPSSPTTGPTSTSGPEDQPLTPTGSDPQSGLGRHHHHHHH

Chain of human ILT2 (LILRB1) expressed at the surface of transfected cells (human) (Q8NHL6 24-650): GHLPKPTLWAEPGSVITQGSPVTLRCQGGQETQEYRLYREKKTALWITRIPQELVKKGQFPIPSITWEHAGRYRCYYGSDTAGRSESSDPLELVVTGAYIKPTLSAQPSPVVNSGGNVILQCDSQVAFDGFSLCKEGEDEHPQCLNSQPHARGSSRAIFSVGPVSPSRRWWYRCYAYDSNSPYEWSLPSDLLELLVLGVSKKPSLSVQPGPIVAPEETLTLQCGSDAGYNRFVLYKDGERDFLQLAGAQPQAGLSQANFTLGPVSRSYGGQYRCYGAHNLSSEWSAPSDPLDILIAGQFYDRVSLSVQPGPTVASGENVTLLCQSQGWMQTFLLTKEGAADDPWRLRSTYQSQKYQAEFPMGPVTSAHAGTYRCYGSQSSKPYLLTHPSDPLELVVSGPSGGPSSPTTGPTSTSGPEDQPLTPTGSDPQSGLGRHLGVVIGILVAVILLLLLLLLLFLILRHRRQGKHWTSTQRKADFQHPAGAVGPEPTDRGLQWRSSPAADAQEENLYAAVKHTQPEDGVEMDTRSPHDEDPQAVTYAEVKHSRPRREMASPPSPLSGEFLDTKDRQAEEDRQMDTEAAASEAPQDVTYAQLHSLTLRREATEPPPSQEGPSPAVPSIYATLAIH

EC50 [1]: 5.39 µg/mL
Kd [2]: 28.1 nM
koff [2]: 0.00038 s⁻¹
kon [2]: 13000 M⁻¹ s⁻¹
Substance: GHI/75 (antibody)
